These results are taken from the nanobody polyreactivity screen of Harvey et al. (2022).

The data set is described as follows: yeast display, Sf9 membrane polyspecificity reagent, FACS + sequencing; frameworks hold sequencing errors. In outline: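 After 36–48 hours of galactose induction, yeast (Saccharomyces cerevisiae BJ5465) displaying a synthetic nanobody library were stained at 4 °C for 1 hour with 10% biotinylated, detergent-solubilized Sf9 membrane reagent. Streptavidin microbeads enriched the stained cells before FACS sorting into low and high (top ~1%) gates on anti-HA and streptavidin fluorescence. Each clone's polyreactivity label reflects its gate of origin.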
Regarding “QVQLVESGGGLVQAGGSLRLSCAASGSTFVSNAMGWDRQAPGKERELVAAISSSGGRTSYADSEKGRFTISRDNAKNTVYLQMTSPKPEDTAVYYCAARFKSVDYVQYYYWGQGTQVTVSS”, the “polyreactivity (PSR sort gate)” value is given as “low polyreactivity”.
As for “QVQLVESGGGLVQAGGSLRLSCAASGSTFVSNAMGWYRQAPGKERELVAAISKGDGNTYYADSVKGRFTISRDNAKNTVYLQMNSLKPEDTAVYYCAATYHYYSRWYDYWGQGTQVTVSS”, the entry is “high polyreactivity”; as for “QVQLVESGGGLVQAGGSLRLSCAASGSTFVSYAMGWYRQAPGKESELVAGISWSGTRTYYADSVKGRFTISRDNAKNTVYLQMNSLKPEDTAVYYCAARDSSYNWYGYWGQGTQVTVSS”, “high polyreactivity”.
As for “QVQLVESGGGLVQAGGSLRLSCAASGSTFVTNAMVWYRQAPGKERELVAAIDYDSGSTYYADSVKGRFTISRDNAKNTVYLQMNSLIPEDTAVYYCNADEQSEEEWEYYYSYDYWGQGTQVTVSS”, the entry is “high polyreactivity”; as for “QVQLVESGGGLVQAGGSLRLSCAASGSTFVTYAMGWYRQAPGKERELVAAISRSGGSTYYADSVKGRFTISRDNAKNTVYLQMNSLKPEDTAVYYCAAVIYPYYSYAHRYDYWGQGTQVTVSS”, “low polyreactivity”.
The same measure for “QVQLVESGGGLVQAGGSLRLSCAASGSTFVTYVMGWYRQAPGKERELVADIRRSGGSTYYADSVKGRFTISRDNAKNTVYLQMNSLKPEDTAVYYCAAYQYYYVNEVRRYYYWGQGTQVTVSS”: “high polyreactivity”.
Regarding “QVQLVESGGGLVQAGGSLRLSCAASGSTFVVNAMGWYRPAPGKERELVAAIDGSDGSTYYADSVKGRFTISRDNAKNTVYFQMNSLKPEDTAVYYCAAEVLGRPDVENDYWGQGTQVTVSS”, the “polyreactivity (PSR sort gate)” value is recorded as “low polyreactivity”.
The same measure for “QVQLVESGGGLVQAGGSLRLSCAASGSTFVVNDMGWYRQAPGKERELVAAIRSGTSTNYADSVKGRFTISRDNAKNTVYLQMNSLKPEDTAVYYCNAAITQFAWNRYTLIYDYWGQGTQVTVSS”: “low polyreactivity”; for “QVQLVESGGGLVQAGGSLRLSCAASGSTFVVYAMGWYRQATGKERELVAAISANVGGTYYADSVKGRFTISRDNAKNTVYLQMNSLKPEVTAVYYCAADYAYNYFWRPGDYWGQGTQVTVSS”: “low polyreactivity”.
As for “QVQLVESGGGLVQAGGSLRLSCAASGSTFVWNAMGWSRQAPGKERQLVAAIDSGGSTNYADSVKGRFTISRDNAKNTVYLQMNSLKPEDTAVYYCATDQGYRYLKIYVYGDAFDYWGQGTQVTVSS”, the entry is “low polyreactivity”; as for “QVQLVESGGGLVQAGGSLRLSCAASGSTFVWYAMGWYRQAPGKEREFVAAITNSGGSTYYADSVKGRFTISRDNAKNTVYLQMNSLKPEDTAVDYCAKDRYYYRGAYHEYNYWGQGTQVTVSS”, “low polyreactivity”; as for “QVQLVESGGGLVQAGGSLRLSCAASGSTFVYAMAWYSQAPGKERELVAAITTGDSTYYADSVKGRFTISRDNAKNTVYLQMNSLKPEDTAVYYCAAQWYTRYGEYGYWGQGTQVTVSS”, “low polyreactivity”.
With “QVQLVESGGGLVQAGGSLRLSCAASGSTFVYNALGWDRQAPGKERELVAAITRRGGTTYYADSVKGRFTMSRDNAKNTVYLQMNSLKQEDTAVYYCAARTRGTAYNYSGQGTQVTVSS”, the “polyreactivity (PSR sort gate)” value is listed as “high polyreactivity”.
As for “QVQLVESGGGLVQAGGSLRLSCAASGSTFVYNAMGWSRQAPGKERELVAVITYRGGRTYYADSVKGRFTISRDNAKNTVYLQINSLKPEDTAVYYCAKRVYGSKVRGYDYWGQGTQVTVSS”, the “polyreactivity (PSR sort gate)” value is given as “high polyreactivity”.
As for “QVQLVESGGGLVQAGGSLRLSCAASGSTFVYNAMGWYRQAPGKERELVAAITSRGGSTDYADSVKGRFTISRDNAKNTVYLQMNSLKPEYTSVYYCAADYSHTGSRYYQEGDYWGQGTQVTVSS”, the entry is “low polyreactivity”; as for “QVQLVESGGGLVQAGGSLRLSCAASGSTFVYYALGWYRPSPGKERELVARITRSGGSTYYADSVKGRFTISRDNAKNTVYLQMNSLKPEDTAVYYCAAEQSVYFLVFTGVKFDYWGQGSQVTVSS”, “low polyreactivity”; as for “QVQLVESGGGLVQAGGSLRLSCAASGSTFVYYAMGWYRQAPGKERELVAAISRSGGNTYYADSVKGRFTISRDNAKNTVYLQMNSLKPEDTAVYYCAARSYGVQYYYWGQGTQVTVSS”, “high polyreactivity”.
Consider “QVQLVESGGGLVQAGGSLRLSCAASGSTFVYYAMGWYRQAPGKERELVAAISWSSDSTYYADSEKGRFTISRDNAKNTVYLQMNSLKPEDTAVYYCARSDGRQSYWTDFSTDYYFWGQGTQVTVSS”, for which the “polyreactivity (PSR sort gate)” value is listed as “low polyreactivity”.
The same measure for “QVQLVESGGGLVQAGGSLRLSCAASGSTFVYYAMGWYRQAPGKERELVARITRGGGSTNYADSLKARFTISRDNAKNTVYLHMNSLKPEDTAVYYCAKRRKVTYDYWGQGTQVSVSS”: “high polyreactivity”; for “QVQLVESGGGLVQAGGSLRLSCAASGSTFWDYAMGWYRPAPGKERELVAAISTSGGSTYYADSVKGRFTISRDNAKNTVYLQMNSLKPEDPAVYYFAAGRVRRRVWYNYWGQGTQVTVSS”: “high polyreactivity”.
As for “QVQLVESGGGLVQAGGSLRLSCAASGSTFWFNAMGWYRQAPGKERELVAAIDSNTGSTSYADSVKGRFTISRDNAKNTVYLQMNSLIPEDTAVYYCNADYDFAKDRGDYWGQGTQVTVSS”, the entry is “low polyreactivity”.
The same measure for “QVQLVESGGGLVQAGGSLRLSCAASGSTFWFSAMGWYRQEPGKERELVAAITWSGGRTYYADSVKGRFTISRDNAKNTVYLQLNSLKPEDTAVYYCNKAYPQFGPLDDWGQGTQVTVSS”: “low polyreactivity”; for “QVQLVESGGGLVQAGGSLRLSCAASGSTFWFYAMGWYRQAPGKERELVAAITRGGSTYYADSVKGRFSISRDNAKNTVYLQMNSLKPEDTAVYYCAAEVGWSRYKWLEYWGQGTQVTVSS”: “low polyreactivity”.
As to “QVQLVESGGGLVQAGGSLRLSCAASGSTFWFYAMGWYRQAPGKERELVAVISNYGSTYYADSVKGRFTISRDNAKNTVYLQMNSLITEDTAVYSCNKDGGGDSYWYDYWGQGTQVTVSS”, the “polyreactivity (PSR sort gate)” value is “low polyreactivity”.
As for “QVQLVESGGGLVQAGGSLRLSCAASGSTFWGYAMGWYRQAPGTERELVAAITRNGGGTYYADSVKGRFTISRDNAKNTVYLQMNSLKPEDTAVYYCAATRRAYYLYGGQKMDYWGQGTQVTVSS”, the entry is “high polyreactivity”.
As for “QVQLVESGGGLVQAGGSLRLSCAASGSTFWGYTMGWYRQAPGKERELVAAITSGGSTNYADSVKGRFTISRDNAKNTVYLQMNSLKPEDTAVYYCNAVYPGRRRYRKWYIYDYWGQGTQVTVSS”, the entry is “high polyreactivity”; as for “QVQLVESGGGLVQAGGSLRLSCAASGSTFWIYAMGWYRPAPGKERELVAAITLRSGSTYYADSVKGRFTISRDNAKNTVYLQMNSLKPEDTAVYYCAKDYYGTYYAQYNYWGQGTQVTVSS”, “low polyreactivity”; as for “QVQLVESGGGLVQAGGSLRLSCAASGSTFWIYAMGWYRQAPGKERELVAAITLRSGSTYYADSVKGRFTISRDNAKNTVYLQMYSLKPEDTAVYYCATDSWGVDRPNYNYWGQGTQVTVSS”, “low polyreactivity”.
The same measure for “QVQLVESGGGLVQAGGSLRLSCAASGSTFWIYPMGWYRQAPGKERELVAAISNGDSTNYADSVKGRFTISRDNAKNTVYLQMNSLKPEDTAVYYCARQYRIFKTFKYDYWGQGTQVTVSS”: “low polyreactivity”; for “QVQLVESGGGLVQAGGSLRLSCAASGSTFWKYAMGWYRQAPGKERELVASIRSGGSTYYADSVKGRFTISRDNAKNNVYLQMNSLKPEDTAVYYCNAMSRTVSHEADDYWGQGTQVTVSS”: “high polyreactivity”.
